This note sets out measurements from patent US20190144558A1 (MAGENTA THERAPEUTICS, published 2019).

Sequences and labels used below:
B1: Antibody 58 (antibody, human IgG1, kappa, V domains shown)
VH: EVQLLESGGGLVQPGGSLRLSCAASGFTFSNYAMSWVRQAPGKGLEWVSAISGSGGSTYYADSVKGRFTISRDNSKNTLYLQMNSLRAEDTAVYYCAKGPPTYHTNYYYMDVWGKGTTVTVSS
VL: DIQMTQSPSSVSASVGDRVTITCRASQGISSWLAWYQQKPGKAPKLLIYAASSLQSGVPSRFSGSGSGTDFTLTISSLQPEDFATYYCQQTNSFPYTFGGGTKVEIKR
notes: also called Ab58; HC-58/LC-58
B2: Antibody 61 (antibody, human IgG1, kappa, V domains shown)
VH: EVQLLESGGGLVQPGGSLRLSCAASGFTFSSYVMIWVRQAPGKGLEWVSSISGDSVTTYYADSVKGRFTISRDNSKNTLYLQMNSLRAEDTAVYYCAKGPPTYHTNYYYMDVWGKGTTVTVSS
VL: DIQMTQSPSSVSASVGDRVTITCRASQGISSWLAWYQQKPGKAPKLLIYAASSLQSGVPSRFSGSGSGTDFTLTISSLQPEDFATYYCQQTNSFPYTFGGGTKVEIKR
notes: also called Ab61; HC-61/LC-61
B3: Antibody 56 (antibody, human IgG1, kappa, V domains shown)
VH: QVQLVQSGAEVKKPGSSVKVSCKASGGTFSLYAISWVRQAPGQGLEWMGGIIPAFGTANYAQKFQGRVTITADESTSTAYMELSSLRSEDTAVYYCARGGLDTDEFDLWGRGTLVTVSS
VL: DIQMTQSPSSLSASVGDRVTITCRASQSINSYLNWYQQKPGKAPKLLIYAASSLQSGVPSRFSGSGSGTDFTLTISSLQPEDFATYYCQQGVSDITFGGGTKVEIKR
notes: also called Ab56; HC-56/LC-56
B4: Antibody 55 (antibody, human IgG1, kappa, V domains shown)
VH: QVQLVQSGAEVKKPGSSVKVSCKASGGTFRIYAISWVRQAPGQGLEWMGGIIPDFGVANYAQKFQGRVTITADESTSTAYMELSSLRSEDTAVYYCARGGLDTDEFDLWGRGTLVTVSS
VL: DIQMTQSPSSLSASVGDRVTITCRASQSINSYLNWYQQKPGKAPKLLIYAASSLQSGVPSRFSGSGSGTDFTLTISSLQPEDFATYYCQQGVSDITFGGGTKVEIKR
notes: also called Ab55; HC-55/LC-55
B5: Antibody 57 (antibody, human IgG1, kappa, V domains shown)
VH: QVQLVQSGAEVKKPGSSVKVSCKASGGTFSLYAISWVRQAPGQGLEWMGGIIPHFGLANYAQKFQGRVTITADESTSTAYMELSSLRSEDTAVYYCARGGLDTDEFDLWGRGTLVTVSS
VL: DIQMTQSPSSLSASVGDRVTITCRASQSINSYLNWYQQKPGKAPKLLIYAASSLQSGVPSRFSGSGSGTDFTLTISSLQPEDFATYYCQQGVSDITFGGGTKVEIKR
notes: also called Ab57; HC-57/LC-57
B6: Antibody 54 (antibody, human IgG1, kappa, V domains shown)
VH: QVQLVQSGAEVKKPGSSVKVSCKASGGTFSSYAISWVRQAPGQGLEWMGGIIPIFGTANYAQKFQGRVTITADESTSTAYMELSSLRSEDTAVYYCARGGLDTDEFDLWGRGTLVTVSS
VL: DIQMTQSPSSLSASVGDRVTITCRASQSINSYLNWYQQKPGKAPKLLIYAASSLQSGVPSRFSGSGSGTDFTLTISSLQPEDFATYYCQQGVSDITFGGGTKVEIKR
notes: also called Ab54; HC-54/LC-54
B7: Antibody 67 (antibody, human IgG1, kappa, V domains shown)
VH: EVQLVESGGGLVQPGGSLRLSCAASGFTFSDADMDWVRQAPGKGLEWVGRTRNKAGSYTTEYAASVKGRFTISRDDSKNSLYLQMNSLKTEDTAVYYCAREPKYWIDFDLWGRGTLVTVSS
VL: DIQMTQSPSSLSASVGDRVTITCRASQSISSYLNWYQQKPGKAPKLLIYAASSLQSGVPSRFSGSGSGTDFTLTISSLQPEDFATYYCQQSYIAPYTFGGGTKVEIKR
notes: also called Ab67; HC-67/LC-67
B8: Antibody 68 (antibody, human IgG1, kappa, V domains shown)
VH: EVQLVESGGGLVQPGRSLRLSCTASGFTFSDHDMNWVRQAPGKGLEWVGRTRNAAGSYTTEYAASVKGRFTISRDDSKNSLYLQMNSLKTEDTAVYYCAREPKYWIDFDLWGRGTLVTVSS
VL: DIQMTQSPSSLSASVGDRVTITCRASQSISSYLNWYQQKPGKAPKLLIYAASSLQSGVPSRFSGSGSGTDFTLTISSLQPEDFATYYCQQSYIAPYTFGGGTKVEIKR
notes: also called Ab68; HC-68/LC-68
B9: Antibody 66 (antibody, human IgG1, kappa, V domains shown)
VH: EVQLVESGGGLVQPGGSLRLSCAASGFTFSDHYMDWVRQAPGKGLEWVGRTRNKASSYTTEYAASVKGRFTISRDDSKNSLYLQMNSLKTEDTAVYYCAREPKYWIDFDLWGRGTLVTVSS
VL: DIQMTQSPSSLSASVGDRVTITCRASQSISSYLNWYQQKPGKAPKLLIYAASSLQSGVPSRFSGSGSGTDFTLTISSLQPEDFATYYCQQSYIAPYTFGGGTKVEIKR
notes: also called Ab66; HC-66/LC-66
B10: Antibody 69 (antibody, human IgG1, kappa, V domains shown)
VH: EVQLVESGGGLVQPGGSLRLSCAASGFTFVDHDMDWVRQAPGKGLEWVGRTRNKLGSYTTEYAASVKGRFTISRDDSKNSLYLQMNSLKTEDTAVYYCAREPKYWIDFDLWGRGTLVTVSS
VL: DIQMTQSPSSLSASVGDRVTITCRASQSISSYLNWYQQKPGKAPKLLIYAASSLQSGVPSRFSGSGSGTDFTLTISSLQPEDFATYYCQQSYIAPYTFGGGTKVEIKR
notes: also called Ab69; HC-69/LC-69

The assay deals with T1, rhesus CD117 ectodomain (rhesus, UniProt F6V858 26-524).
T1 construct: extracellular domain
Briefly: BLI (Octet Red96), IgG on anti-human Fc sensors, rhesus CD117 ectodomain at 33.3 and 11 nM, 1:1 fit. (Biolayer interferometry detects binding as a change in optical thickness at a sensor tip.)
Experimental: Antibody binding studies were performed at 25 degrees celsius in 1×PBS supplemented with 0.1% w/v bovine serum albumin with a Pall ForteBio Octet Red96 using biolayer interferometry (BLI).
In turn, B1 displayed a Kd of 30.3 nM, a koff of 0.00855 s⁻¹ and a kon of 282000 M⁻¹ s⁻¹.
In turn, B2 yielded a Kd of 20.5 nM, a dissociation rate constant (koff) of 0.00472 s⁻¹ and a kon of 230000 M⁻¹ s⁻¹.
On the same counts, the results for B3 are 0.28 nM, 8.57e-05 s⁻¹ and 306000 M⁻¹ s⁻¹.
In turn, B4 showed a Kd of 0.284 nM, a dissociation rate constant (koff) of 8.96e-05 s⁻¹ and a kon of 315000 M⁻¹ s⁻¹.
On the same counts, the results for B5 are 0.288 nM, 8.57e-05 s⁻¹ and 298000 M⁻¹ s⁻¹.
Taken in the same sequence, the figures for B6 were 2.6 nM, 0.000793 s⁻¹ and 304000 M⁻¹ s⁻¹.
Taken in the same sequence, the figures for B7 were 0.376 nM, 8.57e-05 s⁻¹ and 228000 M⁻¹ s⁻¹.
With B8, the Kd was determined as 0.374 nM, the koff was 8.98e-05 s⁻¹ and the kon is 240000 M⁻¹ s⁻¹.
Taken in the same sequence, the figures for B9 were 66 nM, 0.0258 s⁻¹ and 391000 M⁻¹ s⁻¹.
Molecule B10 returned a Kd of 0.528 nM, a koff of 0.000126 s⁻¹ and a kon of 240000 M⁻¹ s⁻¹.

Broadly, the Kd is a measure of binding affinity in units of concentration. Read a low Kd as higher affinity. As usually defined, the koff is a measure of how fast the partners let go of each other. A high value points to a short-lived complex. Usually kon stands for a measure of how fast the partners come together.
